Laboratory results published in PMC5356885 (Oncotarget, 2016).

Target: T1, recombinant CaM for NMR (pETM11-CaM, tag cleaved) (UniProt P62149 1-149)
T1 construct: also called ^14N-CaM; ^15N-CaM
Assay: NMR titration
Details: both partners purified

| Binder | binding result |
| --- | --- |
| histidine-tagged recombinant v-Myc bHLH-LZ fragment for NMR (131-amino acid construct, S314-A416) (domain or fragment) SNNRKCSSPRTLDSEENDKRRTHNVLERQRRNELKLRFFALRDQIPEVANNEKAPKVVILKKATEYVLSLQSDEHKLIAEKEQLRRRREQLKHNLEQLRNSRA | binds |
| tag-free Myc (v-Myc bHLH-LZ fragment without the histidine tag) (domain or fragment, ^15N-labelled) SNNRKCSSPRTLDSEENDKRRTHNVLERQRRNELKLRFFALRDQIPEVANNEKAPKVVILKKATEYVLSLQSDEHKLIAEKEQLRRRREQLKHNLEQLRNSRA | binds |
